Reference: the Immune Epitope Database (IEDB)
pKd: −log10 of the molar value.

What was measured:
Experiment in all cases: IEDB peptide-MHC binding, purified MHC/competitive/radioactivity; filed as Kd, often an IC50 or EC50 that approximates it; ≥ and ≤ were set here for values at or beyond the usual limits of such assays
HLA-A*02:02 = biological target: HLA-A*02:02
HLA-A*02:06 = biological target: HLA-A*02:06
HLA-A*02:03 = biological target: HLA-A*02:03
HLA-A*33:01 = biological target: HLA-A*33:01
HLA-A*03:01 = biological target: HLA-A*03:01
HLA-A*31:01 = biological target: HLA-A*31:01
HLA-A*11:01 = biological target: HLA-A*11:01
HLA-A*68:01 = biological target: HLA-A*68:01
[1] = source organism: Vaccinia virus WR
[2] = source organism: Mammarenavirus whitewaterense
[3] = source organism: Dengue virus 1 Brazil/97-11/1997
[4] = source organism: SARS coronavirus Tor2
[5] = source organism: Dengue virus 2 Jamaica/1409/1983
[6] = source organism: Dengue virus 3 Martinique/1243/1999
[7] = source organism: Triticum aestivum

Sequence | pKd (HLA-A*02:02; [1]) | pKd (HLA-A*02:06; [1]) | pKd (HLA-A*02:03; [1]) | pKd (HLA-A*33:01; [1]) | pKd (HLA-A*03:01; [1]) | pKd (HLA-A*31:01; [1]) | pKd (HLA-A*11:01; [1]) | pKd (HLA-A*68:01; [1]) | also measured
GMSIVCIVAA | 6.79 | 5.91 | 6.64 |  |  |  |  |  | 
LINLVQYRI | 6.51 | 5.27 | 6.23 |  |  |  |  |  | 
DVEKRILNTI | ≤ 4.68 | 4.97 | 4.90 |  |  |  |  |  | 
SLGLILLKIV |  |  |  |  |  |  |  |  | pKd (HLA-A*02:03; source organism: Dengue virus 4 Dominica/814669/1981): 7.83
GALYLGHSA | 5.12 | 6.10 | 5.72 |  |  |  |  |  | 
LLGLILFVL | 6.58 | 5.09 | 5.73 |  |  |  |  |  | 
YVEHDPRLV | 5.93 | ≤ 4.65 | 6.15 |  |  |  |  |  | 
FVFDRPLPV |  |  |  |  |  |  |  |  | pKd (HLA-A*02:06; source organism: Homo sapiens): 8.62
PTSETMYLTM | 6.06 | 6.04 | 6.72 |  |  |  |  |  | 
YAGTIKESL | 5.68 | 5.48 | 5.60 |  |  |  |  |  | 
YVHEGVSYEV | 7.89 | 8.04 | 7.15 |  |  |  |  |  | 
LDFAKVASV |  |  |  |  |  |  |  |  | pKd (HLA-A*02:02; [2]): 7.21; pKd (HLA-A*02:06; [2]): 4.97; pKd (HLA-A*02:03; [2]): 6.34
ETLFGSYIT | 5.60 | 4.82 | 5.61 |  |  |  |  |  | 
FMSHVKSVT | 6.29 | 5.36 | 6.74 |  |  |  |  |  | 
SAEVERLMEL | 5.89 | 5.90 | 5.60 |  |  |  |  |  | 
SQVNPLTLTA |  |  |  |  |  |  |  |  | pKd (HLA-A*02:06; [3]): 6.78
FLLVTLAIL |  |  |  |  |  |  |  |  | pKd (HLA-A*02:02; [4]): 9.19; pKd (HLA-A*02:06; [4]): 9.32; pKd (HLA-A*02:03; [4]): 9.01
CTIVDSMII | 4.86 | 5.34 | 5.75 |  |  |  |  |  | 
VIPDELIDV | 6.22 | 6.25 | 7.36 |  |  |  |  |  | 
GLFGKGGIV |  |  |  |  |  |  |  |  | pKd (HLA-A*02:03; [5]): 7.96
QILDNAAKYV | 5.41 | 4.94 | 5.41 |  |  |  |  |  | 
ALINLVQYRI | 8.08 | 6.38 | 7.09 |  |  |  |  |  | 
NTNQGNILM | 5.77 | 5.23 | 5.94 |  |  |  |  |  | 
LLAIGCYSQV |  |  |  |  |  |  |  |  | pKd (HLA-A*02:03; [5]): 8.08

Sequence | pKd (HLA-A*02:02; [1]) | pKd (HLA-A*02:06; [1]) | pKd (HLA-A*02:03; [1]) | pKd (HLA-A*33:01; [1]) | pKd (HLA-A*03:01; [1]) | pKd (HLA-A*31:01; [1]) | pKd (HLA-A*11:01; [1]) | pKd (HLA-A*68:01; [1]) | also measured
TTIGTIAGGV | 6.13 | 7.07 | 7.37 |  |  |  |  |  | 
AADLTQIFEV | 5.91 | 7.96 | 6.39 |  |  |  |  |  | 
FIMRNFLRSI | 7.56 | 9.35 | 9.93 |  |  |  |  |  | 
TLIMIGSNA |  |  |  |  |  |  |  |  | pKd (HLA-A*02:03; [6]): 7.49
AVLDDGIYRI |  |  |  |  |  |  |  |  | pKd (HLA-A*02:06; [3]): 7.98
GVVTTSGTYV |  |  |  |  |  |  |  |  | pKd (HLA-A*02:06; [3]): 6.18
QLLQELCCQH |  |  |  |  |  |  |  |  | pKd (HLA-A*33:01; [7]): ≤ 4.15; pKd (HLA-A*03:01; [7]): ≤ 4.57; pKd (HLA-A*31:01; [7]): ≤ 4.15; pKd (HLA-A*11:01; [7]): ≤ 4.16; pKd (HLA-A*68:01; [7]): 4.76
SMLTNAISSR |  |  |  | 5.63 | 6.30 | 6.93 | 6.59 | 6.66 | 
NSQIFNIISY |  |  |  | 4.97 | 5.97 | 5.88 | 5.29 | 6.36 | 
LSPAHLINK |  |  |  | ≤ 4.45 | 6.68 | 4.73 | 7.40 | 4.79 | 
NVTSMEELAR |  |  |  | 6.60 | 5.30 | 6.15 | 6.64 | 8.55 | 
CLEWLRAKRK |  |  |  | 4.95 | 6.00 | 5.57 | 4.71 | ≤ 4.24 | 
FTQHLLNIR |  |  |  | ≤ 4.11 | ≤ 4.11 | ≤ 4.11 | ≤ 4.11 | ≤ 4.11 | 
PADCFLVKLK |  |  |  | 4.77 | 5.54 | ≤ 4.51 | 5.82 | ≤ 4.65 | 
EIIFLKLFKK |  |  |  | 6.89 | 7.05 | 7.70 | 7.75 | 8.27 | 
YIVHSYLKNY |  |  |  | ≤ 4.15 | ≤ 4.15 | ≤ 4.15 | ≤ 4.16 | ≤ 4.15 | 
FIDRGSIKIK |  |  |  | 5.40 | 6.31 | 5.65 | 6.15 | 6.07 | 
KTNDINVRRR |  |  |  | 5.26 | 7.19 | 7.75 | 5.84 | 6.07 | 
PLNEGVMAV |  |  |  |  |  |  |  |  | pKd (HLA-A*02:03; [6]): 7.67
EIIFLKLFK |  |  |  | 7.00 | 7.79 | 6.22 | 8.90 | 9.16 | 
KFGNSINVK |  |  |  | ≤ 4.11 | 5.15 | 6.21 | 5.19 | ≤ 4.33 | 
KAEMQLKIDK |  |  |  | 4.70 | 5.43 | 5.49 | 6.90 | ≤ 4.60 | 
LSKRERQLAK |  |  |  | ≤ 4.24 | 5.87 | 5.80 | 5.95 | 5.23 | 
